Here are results for one substance from publication doi:10.1101/2021.05.31.445667.

This series deals with ZAP-S. The experiment in a line: MST.

The substance SARS-CoV-2 -1PRF pseudoknot RNA (WT) displayed a Kd of 0.121 µM.
